Laboratory results published in publication PMC6814260 (Chembiochem : a European journal of chemical biology, 2019).

Molecular target: the molecule itself

B1: XoxF, lanthanide-dependent methanol dehydrogenase from Methylobacterium extorquens AM1 (enzyme, UniProt C5B120 22-601, looked up)
chain: NESVLKGVANPAEQVLQTVDYANTRYSKLDQINASNVKNLQVAWTFSTGVLRGHEGSPLVVGNIMYVHTPFPNIVYALDLDQGAKIVWKYEPKQDPSVIPVMCCDTVNRGLAYADGAILLHQADTTLVSLDAKSGKVNWSVKNGDPSKGETNTATVLPVKDKVIVGISGGEFGVQCHVTAYDLKSGKKVWRGYSIGPDDQLIVDPEKTTSLGKPIGKDSSLKTWEGDQWKTGGGCTWGWFSYDPKLDLMYYGSGNPSTWNPKQRPGDNKWSMTIWARNPDTGMAKWVYQMTPHDEWDFDGINEMILTDQKFDGKDRPLLTHFDRNGFGYTLDRATGEVLVAEKFDPVVNWATKVDLDKGSKTYGRPLVVSKYSTEQNGEDVNSKGICPAALGTKDQQPAAFSPKTGLFYVPTNHVCMDYEPFRVTYTPGQPYVGATLSMYPAPGSHGGMGNFIAWDNLQGKIKWSNPEQFSAWGGALATAGDVVFYGTLEGFLKAVDSKTGKELYKFKTPSGIIGNVMTYEHKGKQHVAVLSGVGGWAGIGLAAGLTDPNAGLGAVGGYAALSSYTNLGGQLTVFSLPNN
stoichiometry N: 2
